Data taken from PMC3517355.

T1: CCHF Altamura Gn 611 peptide (Crimean-Congo hemorrhagic fever virus, UniProt Q8JSZ3)
T1 chain: TQEGRGHVKLSRGSE

B1: Gn6-25R (ssDNA)
DNA: ATCCGTCACACCTGCTCTACAGTTAGAGCTTGCCGTATGCCTTTGTTAACATAATGGTGTTGGCTCCCGTAT
B2: Gn6-16cF (ssDNA)
DNA: ATACGGGAGCCAACACCAGAGCACACTAATCATGGCGGCCCGGCGCATCCCGACAGAGCAGGTGTGACGGAT
B3: Gn6-18F (ssDNA)
DNA: ATACGGGAGCCAACACCATACGCACCCGCATTCGTTAGTGTGTACAGTATGTCCAGAGCAGGTGTGACGGAT
B4: Gn6-17F (ssDNA)
DNA: ATACGGGAGCCAACACCAAACTAGACAACCGCCCTTATACACACTGTACCAGTAGAGCAGGTGTGACGGAT
B5: Gn6-30F (ssDNA)
DNA: ATACGGGAGCCAACACCATCCCACCGAATATCCGCTTTCCTCGTCCTCCTTTCAGAGCAGGTGTGACGGAT
B6: Gn6-5F (ssDNA)
DNA: ATACGGGAGCCAACACCACGCCTTGTCTATTCTCTTAGTTTCCTGCTACTCCACAGAGCAGGTGTGACGGAT
B7: Gn6-7bR (ssDNA)
DNA: ATCCGTCACACCTGCTCTCACATACTGGTCAGTCTCTATCGAGGCGGGCATTGGTGTTGGCTCCCGTAT
B8: Gn6-16cR (ssDNA)
DNA: ATCCGTCACACCTGCTCTGTCGGGATGCGCCGGGCCGCCATGATTAGTGTGCTCTGGTGTTGGCTCCCGTAT
B9: Gn6-6R (ssDNA)
DNA: ATCCGTCACACCTGCTCTGCATATAAATTTTTAACAAGGGACTGGTAACTATCCTGGTGTTGGCTCCCGTAT
B10: Gn6-15R (ssDNA)
DNA: ATCCGTCACACCTGCTCTGGGCCAGGTAAGAAGATGCGAGCTGTGTAATACATGTGGTGTTGGCTCCCGTAT
B11: E7c-23/25R (ssDNA)
DNA: ATCCGTCACACCTGCTCTACAGTTAGAGCTTGCCGTATGCCTTTGTTAACATAATGGTGTTGGCTCCCGTAT
B12: E7b-1bR (ssDNA)
DNA: ATCCGTCACACCTGCTCTTTGACACGCGTACGGGTCCGGACATGTCATAACGGACTGGTGTTGGCTCCCGTAT
B13: E7b-8a/10/16-19/23-25R (ssDNA)
DNA: ATCCGTCACACCTGCTCTTGACACGCGTACGGGTCCGGACATGTCATAACGGACTGGTGTTGGCTCCCGTAT
B14: E7b-1aR (ssDNA)
DNA: ATCCGTCACACCTGCTCTGGAAGCTTCATATTTTGAGGAATCCTCTTGAATTATGGTGTTGGCTCCCGTAT
B15: E7b-3R (ssDNA)
DNA: ATCCGTCACACCTGCTCTAAAGGATCCTTCTTAGCATCACATTATGATAAGATATGGTGTTGGCTCCCGTAT
B16: E7b-14R (ssDNA)
DNA: ATCCGTCACACCTGCTCTTGACGCGCGAACGGGTCCGGACACGTCATAACGGAATGGTGCTGGCTCCCGTAA
B17: E7b-1bF (ssDNA)
DNA: ATACGGGAGCCAACACCAGTCCGTTATGACATGTCCGGACCCGTACGCGTGTCAAAGAGCAGGTGTGACGGAT
B18: E7b-6R (ssDNA)
DNA: ATCCGTCACACCTGCTCTTAACCTATTTGGGTCGCGTTCTCAAAATAACTTCTGTGGTGTTGGCTCCCGTAT
B19: E7b-5R (ssDNA)
DNA: ATCCGTCACACCTGCTCTTGGGCATCAGCGGGCGATGCATGCGATAAATTAGTGTGGTGTTGGCTCCCGTAT
B20: E7b-1aF (ssDNA)
DNA: ATACGGGAGCCAACACCATAATTCAAGAGGATTCCTCAAAATATGAAGCTTCCAGAGCAGGTGTGACGGAT
B21: E7b-20/21R (ssDNA)
DNA: ATCCGTCACACCTGCTCTCGCTGAAGCAAGACATTATCGGGACATTGCCGTGATGGTGTTGGCTCCCGTAT
B22: E7a-23F (ssDNA)
DNA: ATACGGGAGCCAACACCATGTCAGGACCTCCATCGCCCGGGCCCGCCGCCGCTGAGAGCAGGTGTGAC
B23: E7a-33R (ssDNA)
DNA: ATCCGTCACACCTGCTCTACATCACATCTGACTGAGTCCATGGCGCTCTGTGTGTGGTGTTGGCTCCCGTAT
B24: E7a-5R (ssDNA)
DNA: ATCCGTCACACCTGCTCTTGACACGCGTACGGGGTCCGGACATGTCATAACGGACTGGTGTTGGCTCCCGTAT
B25: E7a-18F (ssDNA)
DNA: ATACGGGAGCCAACACCAACAGATGGATAAGGGGGAAACTGCCCATTCGGTTAGTAGAGCAGGTGTGACGGAT
B26: E7a-11R (ssDNA)
DNA: ATCCGTCACACCTGCTCTCGTGTGATATATATGGTAAGGGGGGTTAGTACTGCTGGTGTTGGCTCCCGTAT
B27: E7a-33F (ssDNA)
DNA: ATACGGGAGCCAACACCACACACAGAGCGCCATGGACTCAGTCAGATGTGATGTAGAGCAGGTGTGACGGAT
B28: E7a-29F (ssDNA)
DNA: ATACGGCAGCCAACACCACACACATAGCGCTTTGTATTCAGCCGGATGTGATGTAGAGCAGGTGTGACGGAT
B29: E7a-20R (ssDNA)
DNA: ATCCGTCACACCTGCTCTGGTTAAACGATATGGGGCCTGCCGTTATAACTGCGTGGTGTTGGCTCCCGTAT
B30: E7a-8R (ssDNA)
DNA: ATCCGTCACACCTGCTCTCGCTGAAGCAAGACATTATCGGGACATTGCCGTGATGGTGTTGGCTCCCGTAT
B31: E7a-20F (ssDNA)
DNA: ATACGGGAGCCAACACCACGCAGTTATAACGGCAGGCCCCATATCGTTTAACCAGAGCAGGTGTGACGGAT

Molecular target: T1, CCHF Altamura Gn 611 peptide
Assay: ELASA; […] (0.5 M NaCl, 10 mM Tris-HCl, 1 mM MgCl2, pH 7.5-7.6), 1 h, RT (~25 C); […]
Details: label: 5'-biotin

In order of rising binding signal:
1. B10  1.63 A405
2. B9  1.64 A405
3. B8  1.67 A405
4. B7  1.69 A405
5. B5  1.75 A405
6. B6  1.75 A405
7. B4  1.82 A405
8. B3  1.86 A405
9. B2  1.9 A405
10. B1  1.94 A405

molecular target: CCHF 11E7c peptide (Crimean-Congo hemorrhagic fever virus, UniProt Q8JSZ3); assay: as above; details: label: 5'-biotin

Binder B11 has a binding signal of 2.12 A405.

molecular target: CCHF 11E7b peptide (Crimean-Congo hemorrhagic fever virus, UniProt Q8JSZ3); assay: as above; details: label: 5'-biotin

In order of rising binding signal:
1. B21  1.78 A405
2. B20  1.83 A405
3. B18  1.86 A405
4. B19  1.86 A405
5. B17  1.88 A405
6. B16  1.9 A405
7. B15  1.94 A405
8. B13  2 A405
9. B14  2 A405
10. B12  2.07 A405

molecular target: CCHF 11E7a peptide (Crimean-Congo hemorrhagic fever virus, UniProt Q8JSZ3); assay: as above; details: label: 5'-biotin

In order of rising binding signal:
1. B31  2.02 A405
2. B29  2.04 A405
3. B30  2.04 A405
4. B28  2.06 A405
5. B26  2.07 A405
6. B27  2.07 A405
7. B24  2.08 A405
8. B25  2.08 A405
9. B23  2.12 A405
10. B22  2.23 A405
